{
  "source": "the DeepSol protein solubility set",
  "data": [
    {"assay": "soluble on expression in E. coli; label from the status in PepcDB or PDB records", "values": [
      {"sequence": "MSLKVVITRPKERADVFASLLKKEGFEPIIFPTLEIVYNKDLDVNLDSYDWIAFTSPSGVIGLYNILTENERENVKNKKIAVIGEKTAKTFKKYFGRDPDIMPNEYTAESLLREIKKVSKEEEKFLIPTTPSTRDVLKNNLNADLLFVYKSAEPENLKEDIKKLKELIAKDKFILTFTSGLTAKNFFKYVDDEFAEIIKDNYIVAIGPITAKVIEKFGFKPLIPKVYTIEGMLEVIRTLKEREGHHHHHH", "soluble on expression in E. coli": "soluble"},
      {"sequence": "MSLKYDVCIIGAGPAGYAAAMRALDLNKSVILIEKDKIGGAGLYNGAISSKTFWELAKDIQTARKRLAQYSPDQHFSVTYQQVLRQVREGIANRRFHLEGQIESLAKQQTSRFRYIKGSAKLVSHNTVEVSTGTEEEIIEAENVVIATGSKPRKLPNIPIDEKIIVTSDGVENFENFPKSLVILGAGVIGCEWATIFSNFGYTSVNIIDKAERILPFEDDDVTDVVEANMKKQGITVHKKSNLLSMRIVDGEVEYILEYTDGRKEMHRVEKVLVSVGRIPNTQNLGLERVGVNILANGQIENTDGQTNIPNIYVAGDISSDVALVNVAELEGRHVIEKMFGLSDSVITYNNVSTIMFVQPEVAGVGMNEKKALQNKMSYKVVKIRYDMIPRAIAMRNNDGFFKILVTNDADMKIIGMRAVGVHASSAIQAVALLISMDKGVEELADMIHPHPSIIEGIQECIRMLLGKSVLKPEFFKGMLSCKSCDENGCVNDIIYLREGHHHHHH", "soluble on expression in E. coli": "soluble"},
      {"sequence": "MSLKYLIDLHTHTIVSGHAYTTLLENIKQASQIGIKILGTSEHGPKMPGAPHIWYFGNMNKVPRKIYDVTVLRGCEADILNSNGDLDIPERIQNELDYIIASLHDVCIEPGTIEDNTKALLNAMNNPNIDILGHTGNPMYPIDIDAVVSKAKEKNVLIEINNGSLSGSREGSYDNCKKIAQACKKKGVKVILGTDSHISFTIGNFDKVQKLLDSVDMPKELIMNTDEKKIVEYLKAKGKLKNEGHHHHHH", "soluble on expression in E. coli": "soluble"},
      {"sequence": "MSLLAEKLQINSITPHPSVEYWSVCKVEALFETPFLELVYRATQVHRKHFNPRAIQLSTLMSIKTGGCPEDCSYCPQSARYHTGVQNQQLLDVDEIVAKAKIAKARGAGRFCMGAAWRGPKPKDIEKVTEIIKAVKSLGLETCGTFGLLQDGMAEDLKEAGLDYYNHNLDTAPEHYAEVIGTRRFDDRLSTLGKVRKAGLKVCCGGIVGMNETRKERAGLIASLANLDPQPESVPINQLVKVEGTPLADAEELDWTEFVRTIAVARITMPKSYVRLSAGRSGMTEEMQAMCFMAGANSIFYGDKLLVTDNPEEDGDQLLMAKLDLEPETAENKKLEGHHHHHH", "soluble on expression in E. coli": "soluble"},
      {"sequence": "MSLLDRLNDDMKQAMKNKEKEKLSVLRMLKAALQNEAIKLGKSPLSEDEELTVLSRELKQRKDSLQEFENAGRSDLVEKVKTEIEIVQSYMPTPLTEDELRELIEQTIKEVGASSKADMGKVMGAIMPKVKGRADGSLVNKLVQQQLS", "soluble on expression in E. coli": "soluble"},
      {"sequence": "MSLLFDSHLHLDQLSDENIQQTLAHSKIIGMLAVSTNLNSAKKLLNLKQTYPKKLYIAAGFHPEQQLPSLEEQKKLFQWIDEHHSSISAIGEVGLPHYSKRENPNLDYVPYIELLERFILIAKKWDLPLNLHIVHNDVEIALELLQKHNIQRAHFHWFKTDEKSFQKFFSTPYFASLTPDILWNSKTQYVAQHLSLNRLMIETDSPWQHEGFERAGISEQLLAVLQKLAELKSLPLHSVQKQILLNTQQFYQLEGHHHHHH", "soluble on expression in E. coli": "soluble"},
      {"sequence": "MSLLGRVLLFYKKGIFNDDLKKFLRSKNINVIDVRIGKYVEVDIMDDPRKVISLIGEPLFMVTEISGTFKPLFYEMRFWECHEIIEEKWREVKNKDDKKFLQAIILLCASLIKYLKGEIEVSDMLMEKALSLISDLPQELLPLLYISLGLNTEGHHHHHH", "soluble on expression in E. coli": "soluble"},
      {"sequence": "MSLLIDFIDETEEVKEEYMSLIREVLEKAAQMENIEDGAEVSVTFVDNERIREINRDYRDKDQPTDVISFAMEEMGEGEMEIVGAEMPRMLGDLIISIPRAKEQAEEYGHSFDRELGFLALHGFLHLLGYDHMTEEDEKEMFGRQKEILEAFGLGR", "soluble on expression in E. coli": "not soluble"},
      {"sequence": "MSLLLIKNGKIITMTGKNYDKGCVLIDNGKIVDVNENIKENKYMKVIDASNFTVIPGIIDAHCHIGIDEQDIGKVGLDINEVSNPVTPNLRAIDAINPMDSAFNDAVMGGITGVMTGPGSANVIGGQFVFMKTYGKCIDDMVVLEPAAVKAALGENPKRVYGGKGKAPVTRMAIAALLREALTEAENYKNKKEALKAKGERIEKNLKLEALIPVIEGNIPLKVHAHRADDILTAIRIAKEFKINITLDHCTEGHLIPEKVKESGYPVLVGPSLTSRSKSEVSNKTFKTPGVLANMGIKTAIITDHPVIPIQYLPICAGLSCREGMKVEDALYAITLNAAEICGVASRLGSIEKGKDADIAIFDGNPMEVFTKTIYTIIDGNIVYKHECYEGHHHHHH", "soluble on expression in E. coli": "soluble"},
      {"sequence": "MSLLNKEALVNRLNASAKRQKADIVIKNGKIMDVYNQEWIYEDIAITDGVIVGLGEYEGENIIDAEGQMIVPGFIDGHVHIESSMVTPIEFAKAVLPHGVTTVVTDPHEIANVSGEKGIEFMLEQARHTPLNIHFMLPSSVPAASFERSGAILKAADLKPFYEEEEVLGLAEVMDYVSVQQAEKDMVQKLLDARVAGKRIDGHLAGLSTDLINIYRTAFVLNDHEVTSKEEALDRIRRGMYVMMREGSVAKNTLNVLPAVNEKNARRFFFCTDDKHVDDLLSEGSVNHQVKMAIQAGLNPFLAYQLGSLNAAECYGLDTKGAIAPGFDADLLFVSDLENVTVTMAMVKGQTVAEDSKAVYQDHASTAAPDQALLDSVKLAAPLNKQDFHMPIDSEQQINVIQIIPNQLETRLVQVPAPVAREFEPDTELDLLKIAVVERHKGLKETGLGVVKGFGFKSGAIATTISHDSHNIIAVGTNDEDIAAAVNKLQEIGGGLTIIKNGEELHSVPLPIAGLLSDQSAEQVNQSLLTLHDKLSLIGFTGGFNPFLTLSFLALPVIPDIKMTTTGLFDVKSFQHISLQEGHHHHHH", "soluble on expression in E. coli": "soluble"},
      {"sequence": "MSLLNSVSAIFLATAMTFAALPQDAQAQDYRFNTVQVDGNQRIETSTIISRMGIERGKTISAGALNDAYQRLLDSGVFETVELIPRGNTLVVKVVEHPTINRINFEGNRRVKDETLEGAIGSQSRRVFTPEQAERDAATIAEIYSTQGRVAATVVPRIIRRSDNRVDLVFEISEGDTIEIERVSFVGNRVFSDRRLRRILETKQAGFLRTFIRSDTFIADRIEFDKQVLRDFYLSRGHVDFRVNSANVEFTRERDAFFLVMDVTEGQQFSFGKITTVSEIPGVEAPAYQDVLKIKPGVVYSPSLVENSIARMERLGLKNGVDFLRVEPRITRNDRDLTLDIEFALVKGPRIFVERIDIEGNTTTLDQVIRRQFRTVEGDPFNPREIRESAERIRALGFFGDANVETREGSTPAQVIVDVDVEEKPTGSLSFGGSYSVSDGFGVAIGLTEDNWLGRGQRLGLTLSTAQDAEQYVLSFTEPQLLGRDLRFDIDLGVANTNSSFASYDTERAFFAPGITFRLGELSTLQLRYRWEASEMVQRTATTVSGAVIASEIAQGKKSSSALGLTYTYDSRIGGLNPNAGVLFEVGVDAAGLGGDNEYFKTSAKAIAQTRVWHEEITLRASLDVGAFTWQGSGFSRAIDRFVIGPNTFRGFEPAGVGPRDQSNGVDDAIGGNYYAVARFEAEFPLGLPEELGLRGGLFYDVGNVWDVSDVNTAGGTIVGADGSFRHVIGFSLLWTTAFGPLRFNFSKALKKETFDKEQSFDLTIQAREGHHHHHH", "soluble on expression in E. coli": "not soluble"},
      {"sequence": "MSLLRETLESGKFAVTTEMAPPKGTDLSHLIECAKPLVGRVHAANVTDFQSAVMRATSLATCKLLKDAGLEPVIQITGRDRNRIAIQGEMLSAGVFGINNLLALTGDHTSVGDHPQAKGVFDLDSVGILQTAETLMAGTDMAGNKLKGSPDFYLGASVTPEYSPIEVQLLKMKKKIKAGAKFFQTQALYDINTMRKFRELTRDMDCKVLAGIVPLKSPGMAKFMTANVPGIFVPDEQIERLRAAGKENWVSEGIKMAGELIKQLKEEDLCDGVHIMAIGAEENIPAILDAAGL", "soluble on expression in E. coli": "not soluble"},
      {"sequence": "MSLLRIRQPKSETVRQFLQTQASRDFSYPMVGATLATPPSEYQVDHTRVRLGHGEESLAQGRIALQKWTQFQLGWVTTFPPALPIQAGEMVAIVARAGGFWWLNACRIVCTIEEPKQFGFAYGTLPAHAESGEERFLIEMDDAGDVWYDILAFSRPNRVSAKLAYPYMRHLQKRFARESAAAMRQAIRPEGHHHHHH", "soluble on expression in E. coli": "soluble"}
    ]}
  ]
}
